The target in assay [1] is T1, PPARγ ligand-binding domain, wild type, His-hPPARγ (231–505) (human, UniProt P37231-1 231-505).
T1 chain: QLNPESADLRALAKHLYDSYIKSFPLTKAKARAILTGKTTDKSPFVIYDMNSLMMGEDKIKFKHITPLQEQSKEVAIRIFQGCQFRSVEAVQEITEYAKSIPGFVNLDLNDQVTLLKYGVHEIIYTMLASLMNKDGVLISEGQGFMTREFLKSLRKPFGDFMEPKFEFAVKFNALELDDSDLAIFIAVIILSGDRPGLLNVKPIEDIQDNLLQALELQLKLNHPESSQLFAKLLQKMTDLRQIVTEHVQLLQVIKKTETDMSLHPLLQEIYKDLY
In words: MST; apo (no ligand).

In assay [2] the target is T2, PPARγ ligand-binding domain, wild type, His-hPPARγ (231–505) (human, UniProt P37231-1 231-505).
T2 construct: Cloned in pET15b; also called PPARγ LBD WT; PPARγ WT; source: E. coli BL21 DE3, purified (Ni-NTA, size exclusion on Superdex 200)
T2 sequence (looked up): T1 chain
In words: MST; no ligand; unlabeled PPARγ LBD (100 µM to 2 nM) titrated into 150 nM fluorescent PGC1α peptide; 20 mM Tris pH 8.0, 200 mM NaCl, 1 mM TCEP, 0.05% Tween 20, 25 °C; apparent Kd. Conditions: both partners purified.

Assay [3] deals with T1, PPARγ ligand-binding domain, wild type, …. As to the kind of experiment: MST; with GW1929.
Assay [4] has the same target. In words: MST; with rosiglitazone.
The target of assay [5] is T2, PPARγ ligand-binding domain, wild type, …. As to the kind of experiment: native MS; native electrospray MS, 5 µM protein in 200 mM ammonium acetate pH 6.8; GW1929 and coactivator peptide added. The note with it: both partners purified.

Ends that are not written are not given here.

B1: fluorescent PGC1α peptide (137-EAEEPSLLKKLLLAPA-152) (peptide)
peptide: EAEEPSLLKKLLLAPA
modifications: also: fluorescent label (dye and position not given here)
notes: PGC1α (PPARGC1A) residues 137-152, NR1 LXXLL motif; also called fluorescently labeled PGC1α peptide; PGC1α NR1 motif; source: bought: Thermo-Fisher (synthetic peptide)
The Kd is a measure of binding affinity in units of concentration. As to B1, the values for the Kd in assay [1], in assay [3] and in assay [4] were 1.7 µM, 0.38 µM and 1 µM, respectively. Further, the binding result in assay [2] is “binds”.

B2: PGC1α peptide (139-EEPSLLKKLLLAPA-152) (peptide)
peptide: EEPSLLKKLLLAPA
notes: PGC1α (PPARGC1A) residues 139-152; source: synthetic peptide (IGBMC peptide synthesis common facility)
Consider B2, for which the binding result in assay [5] is reported as “binds”.

The values are drawn from PMC6335423, “Recurrent activating mutations of PPARγ associated with luminal bladder tumors” (Nature Communications, 2019).
